Test [1] concerns the target PLA2 (phospholipase A2) from Crotalus durissus cascavella rattlesnake venom (Crotalus durissus cascavella).
Test [2] has the same target. This is another data set of the same source.

Turning to “BTL-2, isolectin from the red marine alga Bryothamnion triquetrum (natural protein)”, in test [1], the enzymatic activity of PLA2 on 4-nitro-3-octanoyloxy-benzoic acid after incubation with BTL-2; increase against PLA2 alone was 23%. In addition, the aggregation of washed human platelets induced by PLA2 after 30 min incubation with BTL-2, at 1 μg and 3 μg (72.7% and 48.8%), compared to PLA2 alone in test [2] amounted to 72.7%.

The values above are taken from article PMC2443151.
